In patent publication US20260055193A1 (CELLDEX THERAPEUTICS, published 2026):

T1: recombinant human FcγRIIb (human, UniProt P31994 46-217, limits assumed)
T1 construct: Histidine-tagged recombinant receptor captured on anti-Penta-His biosensors; not shown: histidine tag
T1 sequence (looked up): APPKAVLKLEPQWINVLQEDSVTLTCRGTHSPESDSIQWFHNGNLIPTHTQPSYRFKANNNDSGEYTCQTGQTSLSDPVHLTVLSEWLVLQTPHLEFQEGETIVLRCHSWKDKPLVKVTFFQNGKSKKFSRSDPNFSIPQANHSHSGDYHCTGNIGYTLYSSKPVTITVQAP


Assays:
[1] = molecular target: human KIT (wild-type KIT) (human, UniProt P10721 26-976); assay: cell-based or functional assay
[2] = molecular target: T1, recombinant human FcγRIIb; assay: Bio-layer interferometry (Octet QKe); His-tagged FcγRIIb on anti-Penta-His biosensors, serial dilutions of antibody
Method: Binding to recombinant human Fc receptors was measured by bio-layer interferometry using an Octet® QKe instrument. […] Curve fitting was performed using the instrument's analysis software. Binding to FcRn was performed with association and dissociation steps at pH 6.0 as well as pH 7.2.

human KIT (wild-type KIT), sequence (P10721 other isoform, or with tags, fused parts or gaps limits assumed): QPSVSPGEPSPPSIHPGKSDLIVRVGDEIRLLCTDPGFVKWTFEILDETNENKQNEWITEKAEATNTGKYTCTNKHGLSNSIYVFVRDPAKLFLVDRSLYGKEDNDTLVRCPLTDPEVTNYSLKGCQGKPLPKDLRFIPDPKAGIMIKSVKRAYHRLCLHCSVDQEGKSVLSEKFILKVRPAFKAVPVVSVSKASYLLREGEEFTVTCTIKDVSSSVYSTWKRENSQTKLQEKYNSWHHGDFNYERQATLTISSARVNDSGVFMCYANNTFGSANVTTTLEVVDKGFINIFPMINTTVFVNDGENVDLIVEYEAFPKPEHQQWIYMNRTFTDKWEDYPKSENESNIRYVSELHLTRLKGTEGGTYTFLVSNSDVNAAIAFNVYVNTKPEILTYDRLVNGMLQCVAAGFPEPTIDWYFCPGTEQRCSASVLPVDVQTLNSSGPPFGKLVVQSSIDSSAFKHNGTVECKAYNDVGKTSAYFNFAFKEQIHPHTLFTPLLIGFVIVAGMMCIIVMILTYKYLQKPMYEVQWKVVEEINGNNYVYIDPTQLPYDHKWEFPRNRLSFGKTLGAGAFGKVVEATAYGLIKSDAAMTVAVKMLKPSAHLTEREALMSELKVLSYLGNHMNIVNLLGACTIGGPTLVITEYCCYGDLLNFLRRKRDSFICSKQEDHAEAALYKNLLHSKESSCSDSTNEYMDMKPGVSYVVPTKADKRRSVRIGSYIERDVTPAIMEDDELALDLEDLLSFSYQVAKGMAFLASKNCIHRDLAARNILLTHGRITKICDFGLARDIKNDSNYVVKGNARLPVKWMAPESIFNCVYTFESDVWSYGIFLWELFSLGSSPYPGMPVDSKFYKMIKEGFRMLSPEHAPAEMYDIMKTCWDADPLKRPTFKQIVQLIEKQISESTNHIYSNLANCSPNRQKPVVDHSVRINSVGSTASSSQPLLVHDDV

Binder	IC50 of inhibition of SCF-dependent M-07e cell proliferation [1] [nM]	binding result [2]
mAb1 (antibody, human IgG1, kappa) heavy: QVQLVQSGAEVKKPGASVKLSCKASGYTFTDYYINWVRQAPGKGLEWIARIYPGSGNTYYNEKFKGRATLTADKSTSTAYMQLSSLRSEDTAVYFCARGVYYFDYWGQGTTVTVSSASTKGPSVFPLAPSSKSTSGGTAALGCLVKDYFPEPVTVSWNSGALTSGVHTFPAVLQSSGLYSLSSVVTVPSSSLGTQTYICNVNHKPSNTKVDKKVEPKSCDKTHTCPPCPAPEAQGGPSVFLFPPKPKDTLYITREPEVTCVVVDVSHEDPEVKFNWYVDGVEVHNAKTKPREEQYNSTYRVVSVLTVLHQDWLNGKEYKCQVSNKALPAPIEKTISKAKGQPREPQVYTLPPSRDELTKNQVSLTCLVKGFYPSDIAVEWESNGQPENNYKTTPPVLDSDGSFFLYSKLTVDKSRWQQGNVFSCSVMHEALHNHYTQKSLSLSPG light: DIVMTQSPSSLSASVGDRVTITCKASQNVRTNVAWYQQKPGKAPKALIYSASYRYSGVPDRFTGSGSGTDFTLTISSLQPEDFADYFCQQYNSYPRTFGGGTKVEIKRTVAAPSVFIFPPSDEQLKSGTASVVCLLNNFYPREAKVQWKVDNALQSGNSQESVTEQDSKDSTYSLSSTLTLSKADYEKHKVYACEVTHQGLSSPVTKSFNRGEC	1.11	–
mAbc (antibody, It only says that mAbc has the variable regions of mAb1 and a wild-type (unmutated) human IgG1 Fc; also called corresponding antibody with a wild-type (unmutated) IgG1 Fc domain; copies: 2 + 2) heavy: not shown light: DIVMTQSPSSLSASVGDRVTITCKASQNVRTNVAWYQQKPGKAPKALIYSASYRYSGVPDRFTGSGSGTDFTLTISSLQPEDFADYFCQQYNSYPRTFGGGTKVEIKRTVAAPSVFIFPPSDEQLKSGTASVVCLLNNFYPREAKVQWKVDNALQSGNSQESVTEQDSKDSTYSLSSTLTLSKADYEKHKVYACEVTHQGLSSPVTKSFNRGEC	1.12	no binding (tested: 500 nM)
